# Laboratory results reported in paper PMC11082164.
# Biological target: recombinant human full-length BIN1 isoform 8 (human)
"relative membrane binding of Alexa488-ezrin-T567D on supported lipid bilayers with 5% PI(4,5)P2 in the presence of 0.1 µM BIN1 iso8, normalized to ezrin-T567D without BIN1 (confocal intensity)","relative membrane binding of Alexa488-ezrin on supported lipid bilayers with 5% PI(4,5)P2 in the presence of 0.1 µM BIN1 iso8, normalized to ezrin without BIN1 (confocal intensity)",Substance
1.5 fold,,recombinant ezrin T567D (from UniProt P15311 1-586) (natural protein)
,2.5 fold,recombinant ezrin wild-type (from UniProt P15311 1-586) (natural protein)
